Values quoted from earlier work, collected in US20210333272A1.

Tested on: CD63 fragment
Conditions: CITED BasePair Biotechnologies CD63 aptamer data sheet; cited from earlier work

## BasePair CD63 aptamer (ATW0056)
  Kd: 17.1 nM
